Assay results published in patent publication US7317091.

What was measured:
[1] = molecular target: human V158 FcγRIIIa extracellular region fused with glutathione S-transferase (GST) (human) (UniProt P08637); experiment: AlphaScreen competition
[2] = molecular target: FcγRIIIa on human PBMC effector cells (human) (UniProt P08637); experiment: cell-based or functional assay
[3] = molecular target: human FcγRIIb extracellular region, GST-tagged (human) (UniProt P31994); experiment: AlphaScreen competition
human FcγRIIb extracellular region, GST-tagged (human), sequence (P31994 43-217): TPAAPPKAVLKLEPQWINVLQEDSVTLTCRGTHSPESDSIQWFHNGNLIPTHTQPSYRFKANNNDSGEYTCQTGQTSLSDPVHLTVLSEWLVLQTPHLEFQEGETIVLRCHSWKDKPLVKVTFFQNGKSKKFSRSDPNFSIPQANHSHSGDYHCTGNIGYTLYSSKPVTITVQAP

human V158 FcγRIIIa extracellular region fused with glutathione S-transferase (GST) (human), sequence (P08637 17-208 F176V): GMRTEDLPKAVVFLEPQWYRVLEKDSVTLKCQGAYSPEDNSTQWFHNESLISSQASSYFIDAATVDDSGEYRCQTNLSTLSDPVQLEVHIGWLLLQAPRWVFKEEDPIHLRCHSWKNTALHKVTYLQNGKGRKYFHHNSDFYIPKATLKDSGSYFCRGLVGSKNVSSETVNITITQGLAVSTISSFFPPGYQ

Q: How did the FcγRIIIa Fold [1] turn out when K326T trastuzumab (antibody) was run?
A: 1.88 fold vs WT

Q: How did the FcγRIIIa Fold [1] turn out when V302I trastuzumab (antibody) was run?
A: 1.01 fold vs WT

Q: For Y278W trastuzumab (antibody), which FcγRIIIa Fold [1] is on record?
A: 0.41 fold vs WT

Q: With E283R trastuzumab (antibody) as the substance, how does the FcγRIIIa Fold [1] read?
A: 0.67 fold vs WT

Q: Which FcγRIIIa Fold [1] does the source give for K274T trastuzumab (antibody) here?
A: 1.41 fold vs WT

Q: E333H trastuzumab (antibody) was tested. Which FcγRIIIa Fold [1] did it give?
A: 0.75 fold vs WT

Q: K274L trastuzumab (antibody) was tested. Which FcγRIIIa Fold [1] did it give?
A: 1.09 fold vs WT

Q: With V264I/I332E alemtuzumab (antibody) as the substance, how does the ADCC EC50, DoHH-2 targets, V158/F158 PBMCs [2] read?
A: 4 ng/mL

Q: What about the ADCC log(EC50), DoHH-2 targets, V158/F158 PBMCs [2] of the same substance?
A: 0.6 log(ng/ml)

Q: “S239D/A330Y/I332E/V240I trastuzumab (antibody)” was tested. Which FcγRIIIa Fold [1] did it give?
A: 28 fold vs WT

Q: How did the FcγRIIIa Fold [1] turn out when “S239D/A330Y/I332E/L235D trastuzumab (antibody)” was run?
A: 7.04 fold vs WT

Q: For T335R trastuzumab (antibody), which FcγRIIIa Fold [1] is on record?
A: 2.58 fold vs WT

Q: N276R trastuzumab (antibody) was tested. Which FcγRIIIa Fold [1] did it give?
A: 0.66 fold vs WT

Q: How did the FcγRIIIa Fold [1] turn out when “S239D/V264I/I332E trastuzumab (antibody)” was run?
A: 36.6 fold vs WT

Q: What about the FcγRIIb Fold [3] of the same substance?
A: 14.4 fold vs WT

Q: How did the FcγRIIIa Fold [1] turn out when P230A trastuzumab (antibody) was run?
A: 1.09 fold vs WT

Q: For F275W trastuzumab (antibody), which FcγRIIIa Fold [1] is on record?
A: 1.11 fold vs WT

Q: Which results are given for S239D/I332E alemtuzumab (antibody)?
A: FcγRIIIa Fold [1]: 56.1 fold vs WT; ADCC EC50, DoHH-2 targets, V158/F158 PBMCs [2]: 3 ng/mL; ADCC Fold Improvement Over WT [2]: 3.3 fold; ADCC log(EC50), DoHH-2 targets, V158/F158 PBMCs [2]: 0.49 log(ng/ml)

Q: For E318R trastuzumab (antibody), which FcγRIIIa Fold [1] is on record?
A: 1.06 fold vs WT

Q: K274Y trastuzumab (antibody) was tested. Which FcγRIIIa Fold [1] did it give?
A: 1.06 fold vs WT

Q: How did the FcγRIIIa Fold [1] turn out when “S239D/A330Y/I332E/L234I trastuzumab (antibody)” was run?
A: 22.4 fold vs WT

Q: How did the FcγRIIIa Fold [1] turn out when K274E trastuzumab (antibody) was run?
A: 6.11 fold vs WT

Q: N276E trastuzumab (antibody) was tested. Which FcγRIIIa Fold [1] did it give?
A: 0.87 fold vs WT

Q: Which FcγRIIIa Fold [1] does the source give for N276Y trastuzumab (antibody) here?
A: 0.56 fold vs WT

Q: S324Y trastuzumab (antibody) was tested. Which FcγRIIIa Fold [1] did it give?
A: 0.98 fold vs WT

Q: How did the FcγRIIIa Fold [1] turn out when V273I trastuzumab (antibody) was run?
A: 0.79 fold vs WT

Q: With E272Y trastuzumab (antibody) as the substance, how does the FcγRIIIa Fold [1] read?
A: 8.7 fold vs WT

Q: Which FcγRIIIa Fold [1] does the source give for T335D trastuzumab (antibody) here?
A: 2.79 fold vs WT

Q: For V323I trastuzumab (antibody), which FcγRIIIa Fold [1] is on record?
A: 0.83 fold vs WT

Q: With T335Y trastuzumab (antibody) as the substance, how does the FcγRIIIa Fold [1] read?
A: 1.56 fold vs WT

Q: P230A/E233D trastuzumab (antibody) was tested. Which FcγRIIIa Fold [1] did it give?
A: 0.92 fold vs WT

Q: How did the FcγRIIIa Fold [1] turn out when K326I trastuzumab (antibody) was run?
A: 1.43 fold vs WT

Q: E333T trastuzumab (antibody) was tested. Which FcγRIIIa Fold [1] did it give?
A: 0.78 fold vs WT

Q: With “S239D/I332E/A330I trastuzumab (antibody)” as the substance, how does the FcγRIIIa Fold [1] read?
A: 59.1 fold vs WT

Q: Which FcγRIIIa Fold [1] does the source give for K274R trastuzumab (antibody) here?
A: 1.41 fold vs WT

Q: With Y278E trastuzumab (antibody) as the substance, how does the FcγRIIIa Fold [1] read?
A: 0.9 fold vs WT

Q: How did the FcγRIIIa Fold [1] turn out when “S239D/A330Y/I332E/K326E trastuzumab (antibody)” was run?
A: 64.1 fold vs WT

Q: For “S239N/A330Y/I332E trastuzumab (antibody)”, which FcγRIIIa Fold [1] is on record?
A: 14.2 fold vs WT

Q: How did the FcγRIIIa Fold [1] turn out when S324R trastuzumab (antibody) was run?
A: 0.71 fold vs WT

Q: How did the FcγRIIIa Fold [1] turn out when “S239D/A330Y/I332E/V264T trastuzumab (antibody)” was run?
A: 17.7 fold vs WT

Q: E233D trastuzumab (antibody) was tested. Which FcγRIIIa Fold [1] did it give?
A: 0.85 fold vs WT

Q: With Y278T trastuzumab (antibody) as the substance, how does the FcγRIIIa Fold [1] read?
A: 1.87 fold vs WT

Q: Which FcγRIIIa Fold [1] does the source give for “S239N/S298A/I332E trastuzumab (antibody)” here?
A: 32.1 fold vs WT

Q: What about the FcγRIIb Fold [3] of the same substance?
A: 5.15 fold vs WT

Q: With N276S trastuzumab (antibody) as the substance, how does the FcγRIIIa Fold [1] read?
A: 0.41 fold vs WT

Q: For S239D/I332E trastuzumab (antibody), which FcγRIIb Fold [3] is on record?
A: 19.7 fold vs WT

Q: For S324V trastuzumab (antibody), which FcγRIIIa Fold [1] is on record?
A: 1.17 fold vs WT

Q: How did the FcγRIIIa Fold [1] turn out when “S239N/A330L/I332E trastuzumab (antibody)” was run?
A: 12.9 fold vs WT

Q: How did the FcγRIIIa Fold [1] turn out when V240I/V266I trastuzumab (antibody) was run?
A: 1.72 fold vs WT

Q: With “V264I/S298A/I332E trastuzumab (antibody)” as the substance, how does the FcγRIIIa Fold [1] read?
A: 16.5 fold vs WT

Q: How did the FcγRIIIa Fold [1] turn out when “P230A/E233D/I332E trastuzumab (antibody)” was run?
A: 1.87 fold vs WT
